Assay in all cases: cell-based or functional assay
The target in experiment [1] is HIV-1 Env of isolate MGRM-Chronic-B-020 (subtype B) (HIV-1).
Experiment [2] has as its target HIV-1 Env of isolate MGRM-Chronic-B-023 (subtype B) (HIV-1).
Experiment [3] concerns the target HIV-1 Env of isolate 92UG024 (HIV-1).
Experiment [4] has as its target HIV-1 Env of isolate APV-17 (HIV-1).
For experiment [5], the target named is HIV-1 Env of isolate MGRM-AG-013 (subtype AG) (HIV-1).
In experiment [6] the target is HIV-1 Env of isolate QH0692.42 (subtype B) (HIV-1).
In experiment [7] the target is HIV-1 Env of isolate MGRM-AG-011 (subtype AG) (HIV-1).
For experiment [8], the target named is HIV-1 Env of isolate MGRM-AG-003 (subtype AG) (HIV-1).
For experiment [9], the target named is HIV-1 Env of isolate MG RM-D-021 (HIV-1).
For experiment [10], the target named is HIV-1 Env of isolate MGRM-C-004 (subtype C) (HIV-1).
The target in experiment [11] is HIV-1 Env of isolate MGRM-Chronic-B-001 (subtype B) (HIV-1).
For experiment [12], the target named is HIV-1 Env of isolate MGRM-Chronic-B-018 (subtype B) (HIV-1).
Experiment [13] has as its target HIV-1 Env of isolate TRJ04551.58 (subtype B) (HIV-1).
The target of experiment [14] is HIV-1 Env of isolate TRO.11 (subtype B) (HIV-1).
The target of experiment [15] is HIV-1 APV17 Env (pseudovirus) (HIV-1).
The target in experiment [16] is HIV-1 92RW020 Env (pseudovirus, clade A) (HIV-1).
Experiment [17] concerns the target aMLV envelope (pseudovirus, negative control).

A value given as a limit tells only on which side of the number the result lay.

Chain of 5329_C19 (PGT-136) (antibody) (VH): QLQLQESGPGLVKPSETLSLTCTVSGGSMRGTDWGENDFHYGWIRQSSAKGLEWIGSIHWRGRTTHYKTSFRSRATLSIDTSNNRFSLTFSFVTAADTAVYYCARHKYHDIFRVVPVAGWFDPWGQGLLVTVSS
Chain of 5329_C19 (PGT-136) (antibody) (VL): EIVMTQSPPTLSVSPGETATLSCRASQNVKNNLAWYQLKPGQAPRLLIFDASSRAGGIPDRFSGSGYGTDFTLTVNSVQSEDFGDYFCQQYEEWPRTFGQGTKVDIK
Chain of 5345_I01 (PGT-137) (antibody) (VH): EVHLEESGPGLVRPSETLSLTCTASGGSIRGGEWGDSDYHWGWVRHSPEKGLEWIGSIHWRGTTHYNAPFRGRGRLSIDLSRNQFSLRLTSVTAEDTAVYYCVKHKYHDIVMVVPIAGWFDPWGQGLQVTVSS
Chain of 5345_I01 (PGT-137) (antibody) (VL): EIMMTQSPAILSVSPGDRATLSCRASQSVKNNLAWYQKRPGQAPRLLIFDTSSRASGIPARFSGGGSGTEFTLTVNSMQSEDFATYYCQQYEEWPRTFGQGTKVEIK

Consider 5114_A19 (PGT-128) (antibody), for which the IC50 neutralization in experiment [1] is 0.007 µg/mL; in experiment [2] it was > 50 µg/mL; in experiment [6], 0.029 µg/mL; in experiment [10], 0.025 µg/mL; in experiment [11], > 50 µg/mL; in experiment [12], 0.02 µg/mL. For the same substance, the IC50 neutralization in experiment [13] turned out to be 0.019 µg/mL; in experiment [14], 0.018 µg/mL. Besides, the IC50 (µg/mL), pseudovirus neutralization is > 50 µg/mL in [3]; 0.004 µg/mL in [5]; 3.93 µg/mL in [7]; 34.8 µg/mL in experiment [8]; 0.014 µg/mL in experiment [9]. The neutralization IC50 in [4] was 0.016 µg/mL.
As to 5136_H01 (PGT-131) (antibody), the IC50 neutralization is 0.053 µg/mL in experiment [1]; > 50 µg/mL in [2]; > 50 µg/mL in experiment [6]; 3.71 µg/mL in experiment [10]; > 50 µg/mL in [11]; > 50 µg/mL in [12]. The values for the IC50 neutralization in [13] and in experiment [14] were 0.088 µg/mL and 1.91 µg/mL, respectively. Also, the IC50 (µg/mL), pseudovirus neutralization is > 50 µg/mL in experiment [3]; 0.03 µg/mL in [5]; > 50 µg/mL in experiment [7]; 2.92 µg/mL in experiment [8]; 0.106 µg/mL in experiment [9]. Further, in experiment [4], the neutralization IC50 was > 50 µg/mL.
For the substance 5147_N06 (PGT-130) (antibody), the IC50 neutralization in experiment [1] is 0.014 µg/mL; in experiment [2] it was > 50 µg/mL; in experiment [16], 0.014 µg/mL; in [6] it was > 50 µg/mL; in experiment [10], 2.76 µg/mL; in experiment [11], > 50 µg/mL. The IC50 neutralization in experiment [12] is 31.9 µg/mL; in experiment [13], 0.023 µg/mL; in [14], 0.257 µg/mL. Moreover, the Neutralization by PGT-130, IC50 in experiment [15] and in experiment [17] was > 10 µg/mL throughout. Further, the Neutralization by PGT-130, IC80 in experiment [15] and in experiment [17] was > 10 µg/mL in each case. The Neutralization by PGT-130, IC90 in [15] and in experiment [17] was > 10 µg/mL in each case. Besides, the Neutralization by PGT-130, IC95 in experiment [15] and in experiment [17] was > 10 µg/mL each time. Further, the neutralization IC50 (pseudovirus) in [15] and in experiment [17] was > 10 µg/mL in each case. Moreover, the IC50 (µg/mL), pseudovirus neutralization is > 50 µg/mL in experiment [3]; 0.01 µg/mL in experiment [5]; > 50 µg/mL in experiment [7]; 0.041 µg/mL in [8]; 0.156 µg/mL in experiment [9]. Further, in [4], the neutralization IC50 was determined as 10.7 µg/mL.
For 5329_C19 (PGT-136) (antibody), the IC50 neutralization in experiment [1] is > 50 µg/mL; in experiment [2] it was > 50 µg/mL; in experiment [16], 0.738 µg/mL; in experiment [6], > 50 µg/mL; in experiment [10], 0.034 µg/mL; in [11] it was > 50 µg/mL. In addition, the IC50 neutralization in experiment [12] was > 50 µg/mL; in [13] it was > 50 µg/mL; in experiment [14] it was 0.073 µg/mL. The IC50 (neutralizing activity, pseudovirus) in experiment [15] is > 10 µg/mL. Moreover, the IC50 (µg/mL), pseudovirus neutralization in experiment [3] is 0.052 µg/mL; in [5], > 50 µg/mL; in experiment [7] it was > 50 µg/mL; in experiment [8] it was > 50 µg/mL; in experiment [9], > 50 µg/mL. In experiment [4], the neutralization IC50 is > 50 µg/mL.
5343_B08 (PGT-135) (antibody): the IC50 neutralization in [1] is 0.057 µg/mL; in [2], 0.329 µg/mL; in [16] it was 0.157 µg/mL; in [6] it was > 50 µg/mL; in [10] it was 0.046 µg/mL; in experiment [11] it was > 50 µg/mL. The IC50 neutralization was > 50 µg/mL in [12], > 50 µg/mL in experiment [13] and 0.03 µg/mL in experiment [14]. The IC50 (neutralizing activity, pseudovirus) in [15] was > 10 µg/mL. The IC50 (µg/mL), pseudovirus neutralization in experiment [3] was 0.01 µg/mL; in experiment [5], > 50 µg/mL; in experiment [7] it was > 50 µg/mL; in [8], > 50 µg/mL; in experiment [9], > 50 µg/mL. In addition, the neutralization IC50 in experiment [4] is > 50 µg/mL.
Turning to 5345_I01 (PGT-137) (antibody), the IC50 neutralization in experiment [1] is 32.9 µg/mL; in experiment [2], > 50 µg/mL; in [6] it was > 50 µg/mL; in experiment [10] it was 0.026 µg/mL; in experiment [11], > 50 µg/mL; in experiment [12], > 50 µg/mL. Moreover, the IC50 neutralization in [13] was > 50 µg/mL; in experiment [14], 9.35 µg/mL. In addition, the IC50 (µg/mL), pseudovirus neutralization was 0.106 µg/mL in experiment [3]; > 50 µg/mL in [5]; > 50 µg/mL in experiment [7]; > 50 µg/mL in experiment [8]; > 50 µg/mL in [9]. Further, in [4], the neutralization IC50 is > 50 µg/mL.

The values above are taken from patent publication US20250320281A1.
